What was measured:
Experiment in all cases: EMSA
Settings in all cases: tags: MBP fusion
[1] = biological target: T1, ZFP SBS#1295 (synthetic)
T1 chain: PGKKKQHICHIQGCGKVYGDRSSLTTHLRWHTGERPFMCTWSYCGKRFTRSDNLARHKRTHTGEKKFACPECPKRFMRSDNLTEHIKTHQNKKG
Procedure, shortened: (§1)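 Purified ZFP was titrated against labeled double-stranded target (1 nM or lower, at least 10-fold below expected Kd) carrying the natural binding site with flanks. Binding buffer was 10 mM Tris pH 7.5, 100 mM KCl, 1 mM MgCl2, 0.1 mM ZnCl2, 5 mM DTT, 10% glycerol, 0.02% BSA, with equilibration for at least 45 min. Bound and free target were separated on a 10% polyacrylamide gel.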

[2] = biological target: T2, ZFP SBS#1273 (synthetic)
T2 chain: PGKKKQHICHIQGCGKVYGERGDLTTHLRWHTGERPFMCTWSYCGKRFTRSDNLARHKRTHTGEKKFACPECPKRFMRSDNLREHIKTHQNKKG
Procedure, shortened: as §1

[3] = biological target: T3, ZFP SBS#1272 (synthetic)
T3 chain: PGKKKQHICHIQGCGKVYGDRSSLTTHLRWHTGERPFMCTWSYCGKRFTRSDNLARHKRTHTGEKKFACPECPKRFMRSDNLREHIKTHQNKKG
Procedure, shortened: as §1

[4] = biological target: T4, ZFP SBS#1296 (synthetic)
T4 chain: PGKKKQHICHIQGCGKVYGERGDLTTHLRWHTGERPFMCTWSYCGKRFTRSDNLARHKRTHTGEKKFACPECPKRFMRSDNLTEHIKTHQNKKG
Procedure, shortened: as §1

[5] = biological target: T5, ZFP SBS#1303 (synthetic)
T5 chain: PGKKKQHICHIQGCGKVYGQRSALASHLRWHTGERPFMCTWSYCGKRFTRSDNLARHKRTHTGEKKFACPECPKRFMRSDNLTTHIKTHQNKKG
Procedure, shortened: as §1

[6] = biological target: T6, ZFP SBS#1310 (synthetic, UniProt P08047)
T6 chain: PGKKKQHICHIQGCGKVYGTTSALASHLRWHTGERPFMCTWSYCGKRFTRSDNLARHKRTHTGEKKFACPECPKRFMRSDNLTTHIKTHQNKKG
Procedure, shortened: as §1

[7] = biological target: T7, ZFP SBS#1309 (synthetic)
T7 chain: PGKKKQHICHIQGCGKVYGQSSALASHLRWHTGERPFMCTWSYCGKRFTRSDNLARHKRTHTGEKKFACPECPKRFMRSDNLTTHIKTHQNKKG
Procedure, shortened: as §1

[8] = biological target: ZFP SBS#1289 (synthetic)
Sequence of ZFP SBS#1289 (synthetic) (chain, as listed by the source): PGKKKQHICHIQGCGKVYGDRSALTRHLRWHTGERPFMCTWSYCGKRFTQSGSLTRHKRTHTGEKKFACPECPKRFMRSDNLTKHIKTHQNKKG
Procedure, shortened: as §1

[9] = biological target: ZFP SBS#1267 (synthetic)
Sequence of ZFP SBS#1267 (synthetic) (chain, as listed by the source): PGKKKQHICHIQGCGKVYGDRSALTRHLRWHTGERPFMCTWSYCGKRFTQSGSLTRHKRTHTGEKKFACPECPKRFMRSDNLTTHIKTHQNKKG
Procedure, shortened: as §1

[10] = biological target: T8, ZFP SBS#1292 (synthetic)
T8 chain: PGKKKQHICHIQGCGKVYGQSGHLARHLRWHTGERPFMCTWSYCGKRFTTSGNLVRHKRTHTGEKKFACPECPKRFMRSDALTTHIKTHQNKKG
Procedure, shortened: as §1

[11] = biological target: ZFP SBS#1270 (synthetic)
Sequence of ZFP SBS#1270 (synthetic) (chain, as listed by the source): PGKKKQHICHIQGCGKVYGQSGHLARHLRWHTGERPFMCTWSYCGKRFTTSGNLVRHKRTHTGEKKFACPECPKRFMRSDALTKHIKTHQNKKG
Procedure, shortened: as §1

[12] = biological target: ZFP SBS#1311 (synthetic)
Sequence of ZFP SBS#1311 (synthetic) (chain, as listed by the source): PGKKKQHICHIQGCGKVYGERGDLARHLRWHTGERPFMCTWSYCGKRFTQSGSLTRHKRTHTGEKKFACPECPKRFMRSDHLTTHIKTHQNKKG
Procedure, shortened: as §1

[13] = biological target: T9, ZFP SBS#1308 (synthetic)
T9 chain: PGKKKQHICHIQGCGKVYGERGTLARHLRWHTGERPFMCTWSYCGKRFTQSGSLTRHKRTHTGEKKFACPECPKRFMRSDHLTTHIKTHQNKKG
Procedure, shortened: as §1

[14] = biological target: ZFP SBS#1314 (synthetic)
Procedure, shortened: as §1

[15] = biological target: ZFP SBS#1315 (synthetic)
Sequence of ZFP SBS#1315 (synthetic) (chain, as listed by the source): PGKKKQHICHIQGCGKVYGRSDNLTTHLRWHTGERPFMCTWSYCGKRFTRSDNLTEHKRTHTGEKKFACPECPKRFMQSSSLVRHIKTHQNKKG
Procedure, shortened: as §1

[16] = biological target: T10, ZFP SBS#739 (synthetic)
T10 chain: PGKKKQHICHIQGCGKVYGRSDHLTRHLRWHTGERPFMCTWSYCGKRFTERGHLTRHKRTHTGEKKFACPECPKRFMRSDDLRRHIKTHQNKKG
Procedure, shortened: as §1

[17] = biological target: T11, ZFP SBS#526 (synthetic)
T11 chain: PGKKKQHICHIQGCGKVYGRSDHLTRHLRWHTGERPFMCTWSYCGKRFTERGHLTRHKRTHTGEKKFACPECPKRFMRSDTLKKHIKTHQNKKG
Procedure, shortened: as §1

[18] = biological target: ZFP SBS#1297 (synthetic)
Sequence of ZFP SBS#1297 (synthetic) (chain, as listed by the source): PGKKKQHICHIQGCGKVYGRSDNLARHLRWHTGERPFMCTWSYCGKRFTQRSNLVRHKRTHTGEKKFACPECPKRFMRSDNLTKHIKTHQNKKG
Procedure, shortened: as §1

[19] = biological target: T12, ZFP SBS#1276 (synthetic)
T12 chain: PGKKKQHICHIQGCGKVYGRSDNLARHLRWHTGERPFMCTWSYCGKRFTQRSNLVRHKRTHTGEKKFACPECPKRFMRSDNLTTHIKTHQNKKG
Procedure, shortened: as §1

[20] = biological target: ZFP SBS#1312 (synthetic, UniProt P08047)
Sequence of ZFP SBS#1312 (P08047 other isoform, or with tags, fused parts or gaps): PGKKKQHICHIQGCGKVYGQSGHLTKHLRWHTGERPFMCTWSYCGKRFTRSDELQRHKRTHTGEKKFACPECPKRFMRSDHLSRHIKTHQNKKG
Procedure, shortened: as §1

[21] = biological target: ZFP SBS#1313 (synthetic, UniProt P08047)
Sequence of ZFP SBS#1313 (P08047 other isoform, or with tags, fused parts or gaps): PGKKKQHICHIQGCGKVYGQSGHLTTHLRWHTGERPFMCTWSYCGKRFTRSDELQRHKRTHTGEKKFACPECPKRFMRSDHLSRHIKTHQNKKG
Procedure, shortened: as §1

[22] = biological target: ZFP SBS#1294 (synthetic)
Sequence of ZFP SBS#1294 (synthetic) (chain, as listed by the source): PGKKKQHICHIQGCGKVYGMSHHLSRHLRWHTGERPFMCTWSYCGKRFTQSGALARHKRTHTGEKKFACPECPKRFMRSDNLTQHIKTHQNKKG
Procedure, shortened: as §1

[23] = biological target: T13, ZFP SBS#1293 (synthetic)
T13 chain: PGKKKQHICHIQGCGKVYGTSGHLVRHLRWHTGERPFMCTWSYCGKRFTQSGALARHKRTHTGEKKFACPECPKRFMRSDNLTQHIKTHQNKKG
Procedure, shortened: as §1

[24] = biological target: ZFP SBS#1300 (synthetic)
Sequence of ZFP SBS#1300 (synthetic) (chain, as listed by the source): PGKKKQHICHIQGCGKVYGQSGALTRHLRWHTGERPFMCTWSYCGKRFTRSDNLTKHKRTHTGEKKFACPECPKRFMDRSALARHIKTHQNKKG
Procedure, shortened: as §1

[25] = biological target: T14, ZFP SBS#1248 (synthetic)
T14 chain: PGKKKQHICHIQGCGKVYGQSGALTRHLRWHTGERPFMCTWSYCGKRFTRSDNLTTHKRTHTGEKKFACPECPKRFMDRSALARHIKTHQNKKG
Procedure, shortened: as §1

[26] = biological target: ZFP SBS#1298 (synthetic)
Sequence of ZFP SBS#1298 (synthetic) (chain, as listed by the source): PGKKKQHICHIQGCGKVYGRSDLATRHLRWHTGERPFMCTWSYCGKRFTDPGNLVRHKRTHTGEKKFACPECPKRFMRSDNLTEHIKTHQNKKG
Procedure, shortened: as §1

[27] = biological target: T15, ZFP SBS#1239 (synthetic)
T15 chain: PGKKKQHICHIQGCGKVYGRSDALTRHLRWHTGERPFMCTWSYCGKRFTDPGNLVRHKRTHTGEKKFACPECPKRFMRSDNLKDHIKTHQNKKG
Procedure, shortened: as §1

[28] = biological target: T16, ZFP SBS#1306 (synthetic)
T16 chain: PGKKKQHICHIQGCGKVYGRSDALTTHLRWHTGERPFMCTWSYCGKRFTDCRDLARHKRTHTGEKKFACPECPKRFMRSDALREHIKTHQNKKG
Procedure, shortened: as §1

[29] = biological target: ZFP SBS#1290 (synthetic)
Sequence of ZFP SBS#1290 (synthetic) (chain, as listed by the source): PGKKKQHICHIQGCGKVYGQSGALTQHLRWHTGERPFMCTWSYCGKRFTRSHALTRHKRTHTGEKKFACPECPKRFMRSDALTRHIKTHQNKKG
Procedure, shortened: as §1

[30] = biological target: ZFP SBS#1291 (synthetic)
Sequence of ZFP SBS#1291 (synthetic) (chain, as listed by the source): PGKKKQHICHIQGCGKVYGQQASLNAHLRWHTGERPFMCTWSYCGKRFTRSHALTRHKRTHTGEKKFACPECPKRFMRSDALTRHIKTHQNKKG
Procedure, shortened: as §1

[31] = biological target: T17, ZFP SBS#505 (synthetic)
T17 chain: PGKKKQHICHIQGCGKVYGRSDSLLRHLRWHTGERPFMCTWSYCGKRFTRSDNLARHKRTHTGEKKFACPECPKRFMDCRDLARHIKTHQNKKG
Procedure, shortened: as §1

[32] = biological target: T18, ZFP SBS#440 (synthetic)
T18 chain: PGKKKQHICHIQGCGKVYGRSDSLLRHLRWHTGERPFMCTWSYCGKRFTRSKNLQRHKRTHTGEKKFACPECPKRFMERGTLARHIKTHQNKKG
Procedure, shortened: as §1

[33] = biological target: T19, ZFP SBS#504 (synthetic)
T19 chain: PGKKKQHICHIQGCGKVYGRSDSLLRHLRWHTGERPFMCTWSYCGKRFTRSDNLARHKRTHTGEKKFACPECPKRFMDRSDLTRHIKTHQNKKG
Procedure, shortened: as §1

[34] = biological target: T20, ZFP SBS#503 (synthetic)
T20 chain: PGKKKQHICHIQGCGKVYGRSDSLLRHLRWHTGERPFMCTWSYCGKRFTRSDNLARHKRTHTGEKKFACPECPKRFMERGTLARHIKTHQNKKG
Procedure, shortened: as §1

[35] = biological target: T21, ZFP SBS#1302 (synthetic)
T21 chain: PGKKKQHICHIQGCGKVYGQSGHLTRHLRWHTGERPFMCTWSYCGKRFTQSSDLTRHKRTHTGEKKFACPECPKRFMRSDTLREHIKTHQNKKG
Procedure, shortened: as §1

[36] = biological target: T22, ZFP SBS#1252 (synthetic)
T22 chain: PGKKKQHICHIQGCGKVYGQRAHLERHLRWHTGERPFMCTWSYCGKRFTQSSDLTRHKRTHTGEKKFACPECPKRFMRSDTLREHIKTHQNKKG
Procedure, shortened: as §1

B1: CAGGAGTCC (dsDNA)
DNA 1: CAGGAGTCC
DNA 2: GGACTCCTG
B1 was tested, and the Kd [1] was 0.116 nM, the Kd [2] was 0.1 nM and the Kd [3] was 0.04 nM. The Kd [4] was 37 nM.

B2: TAGGAGTTT (dsDNA)
DNA 1: TAGGAGTTT
DNA 2: AAACTCCTA
Work on B2 yielded a Kd [5] of 0.088 nM, a Kd [6] of 0.075 nM and a Kd [7] of 0.184 nM.

B3: TAGGCAGTC (dsDNA)
DNA 1: TAGGCAGTC
DNA 2: GACTGCCTA
For B3, the Kd [8] was 1.37 nM and the Kd [9] was 6 nM.

B4: TTGGATGGA (dsDNA)
DNA 1: TTGGATGGA
DNA 2: TCCATCCAA
In the case of B4, the Kd [10] is reported as 4.12 nM and the Kd [11] is reported as 0.4 nM.

B5: TGGGCAGCC (dsDNA)
DNA 1: TGGGCAGCC
DNA 2: GGCTGCCCA
Binder B5 has a Kd [12] of 0.91 nM and a Kd [13] of 0.305 nM.

B6: GTACAGTAG (dsDNA)
DNA 1: GTACAGTAG
DNA 2: CTACTGTAC
With B6 the Kd [14] was 3.09 nM and the Kd [15] was 9.27 nM.

B7: GCGGGCGGGC (dsDNA)
DNA 1: GCGGGCGGGC
DNA 2: GCCCGCCCGC
B7 was tested, and the Kd [16] was 16.5 nM and the Kd [17] was 8 nM.

B8: TAGGAAGAG (dsDNA)
DNA 1: TAGGAAGAG
DNA 2: CTCTTCCTA
Work on B8 yielded a Kd [18] of 0.05 nM and a Kd [19] of 0.685 nM.

B9: GGGGCGTGA (dsDNA)
DNA 1: GGGGCGTGA
DNA 2: TCACGCCCC
For B9, the Kd [20] was 0.23 nM and the Kd [21] was 0.09 nM.

B10: AAGGTAGGT (dsDNA)
DNA 1: AAGGTAGGT
DNA 2: ACCTACCTT
B10 was tested, and the Kd [22] was 2.75 nM and the Kd [23] was 0.457 nM.

B11: GTCTAGGTA (dsDNA)
DNA 1: GTCTAGGTA
DNA 2: TACCTAGAC
With B11 the Kd [24] was 0.46 nM and the Kd [25] was 5.14 nM.

B12: CAGGACGTG (dsDNA)
DNA 1: CAGGACGTG
DNA 2: CACGTCCTG
For B12, the Kd [26] was 0.05 nM and the Kd [27] was 0.144 nM.

B13: CTGGCCTTG (dsDNA)
DNA 1: CTGGCCTTG
DNA 2: CAAGGCCAG
With B13 the Kd [28] was 2.29 nM.

B14: GTGGTGATA (dsDNA)
DNA 1: GTGGTGATA
DNA 2: TATCACCAC
With B14 the Kd [29] was 24.1 nM and the Kd [30] was 20.6 nM.

B15: GCCGAGGTGC (dsDNA)
DNA 1: GCCGAGGTGC
DNA 2: GCACCTCGGC
In the case of B15, the Kd [31] is reported as 65 nM, the Kd [32] is reported as 40 nM and the Kd [33] is reported as 25 nM. The Kd [34] was 50 nM.

B16: CCGGCTGGA (dsDNA)
DNA 1: CCGGCTGGA
DNA 2: TCCAGCCGG
For B16, the Kd [35] was 0.05 nM and the Kd [36] was 0.153 nM.

— US20030068675, “Position dependent recognition of GNN nucleotide triplets by zinc fingers” (published 2003)
